Experiment [1] concerns the target RH376 WT (LOV histidine kinase). As to the kind of experiment: SEC-MALS; LOV-HKs and RH376 deletion mutants; ~15 μM sample (400 μl) with 1 mM ATP on Superdex 200 GL 10/300 in HSEC buffer (50 mM Hepes pH 7.5, 100 mM NaCl, 10 mM MgCl2, 0.5 mM DTT) with 1 mM ATP; dark (dim red light) and lit (blue LED) runs; FPLC at 4 °C, MALS and refractive index at 25 °C; n = 1; oligomeric state on a qualitative five-bin scale. On the technique in general: Size exclusion chromatography separates by hydrodynamic size, large species first.

In experiment [2] the target is RT349 (LOV histidine kinase from Rubellimicrobium thermophilum) (Rubellimicrobium thermophilum). The experiment is described as above.
The target in experiment [3] is RE356 (PAS histidine kinase from Rhizobium etli CFN 42) (Rhizobium etli CFN 42). In words: SEC-MALS; PAS-HKs MS367 and RE356; mixtures, and monomer and dimer fractions purified separately and reinjected on Superdex 200 GL; HSEC buffer with 1 mM ATP; FPLC at 4 °C, MALS at 25 °C; n = 1.
Experiment [4] concerns the target MS367 (PAS histidine kinase from Methylocella silvestris BL2) (Methylocella silvestris BL2). Described as above.

In the case of “RH376 WT (LOV histidine kinase) (enzyme)”, the stoichiometry N in experiment [1] is 2.

“RT349 (LOV histidine kinase from Rubellimicrobium thermophilum) (enzyme)” yielded a stoichiometry N in experiment [2] of 2.

Regarding “RE356 (PAS histidine kinase from Rhizobium etli CFN 42) (enzyme)”, the stoichiometry N in experiment [3] turned out to be 2.

For the substance “MS367 (PAS histidine kinase from Methylocella silvestris BL2) (enzyme)”, the stoichiometry N in experiment [4] is 2.

As a reminder, the stoichiometry N is a count of units in the complex or per binding partner.

The record behind these values is paper PMC10359499.
